Positions count from the first letter of the chain named.
B1: MOR12603 (antibody, human IgG1, kappa, V domains shown)
VH: QVQLVQSGAEVKKPGSSVKVSCKASGGTFSSYAISWVRQAPGQGLEWMGLIIPRYGKARYAQKFQGRVTITADESTSTAYMELSSLRSEDTAVYYCARNWPYYYMDFWGQGTLVTVSS
VL: DIVLTQSPATLSLSPGERATLSCRASQNIVFNLAWYQQKPGQAPRLLIYDASNRATGVPARFSGSGSGTDFTLTISSLEPEDFAVYYCQQTKNRPPTFGQGTKVEIKR
notes: Tested as IgG
B2: MOR12606 (antibody, human IgG1, kappa, V domains shown)
VH: B1 VH
VL: DIVLTQSPATLSLSPGERATLSCRASQNIVFNLAWYQQKPGQAPRLLIYDASNRATGVPARFSGSGSGTDFTLTISSLEPEDFAVYYCQQTKSKPSPTFGQGTKVEIKR
notes: Tested as IgG
B3: MOR12605 (antibody, human IgG1, kappa, V domains shown)
VH: B1 VH
VL: B1 VL with T91F, K92R, N93R, R94K, P95S, P96N
notes: Tested as IgG
B4: MOR12514 (antibody, human IgG1, lambda, V domains shown)
VH: QVQLVQSGAEVKKPGASVKVSCKASGYTFTSYDIHWVRQAPGQGLEWMGRIDPYSGNTNYAQKFQGRVTMTRDTSISTAYMELSRLRSEDTAVYYCARGSFYTRDSYFDVWGQGTLVTVSS
VL: DIALTQPASVSGSPGQSITISCTGTSSDVGTYNQVSWYQQHPGKAPKLMIYGVSKRPSGVSNRFSGSKSGNTASLTISGLQAEDEADYYCQVRDMSLFDVFGGGTKLTVLG
notes: Tested as IgG
B5: MOR12516 (antibody, human IgG1, lambda, V domains shown)
VH: B4 VH
VL: DIALTQPASVSGSPGQSITISCTGTSSDVGTYNQVSWYQQHPGKAPKLMIYGVSKRPSGVSNRFSGSKSGNTASLTISGLQAEDEADYYCQSRDTYRPVKVFGGGTKLTVLG
notes: Tested as IgG
B6: MOR12515 (antibody, human IgG1, lambda, V domains shown)
VH: B4 VH
VL: B4 VL with Q91Y, V92S, M95S, S96P, L97M, F98D, D99Q
notes: Tested as IgG
B7: MOR14538 (antibody, human IgG1, lambda, V domains shown)
VH: B4 VH with E89D
VL: B4 VL with D1Q, I2S, Q91A, V92S, R93A, M95H, L97Y, F98H, D99T
notes: Tested as IgG
B8: MOR12921 (antibody, human IgG1, lambda, V domains shown)
VH: B4 VH with S31G, D33Y, I34M, R50D, Y54H, T58A, N59V
VL: B4 VL with Q91S, V92S, M95L, S96I, L97G, F98H, D99Y
notes: Tested as IgG
B9: MOR14537 (antibody, human IgG1, lambda, V domains shown)
VH: B4 VH with E89D
VL: B5 VL with D1Q, I2S, Q91S, R93A, D94T, T95Q, Y96K, R97P, P98D, K100T
notes: Tested as IgG

Biological target: T1, human HER3 endogenously expressed on human cancer cells (SK-Br-3, BT-474, MCF7) (human, UniProt P21860 20-1342)
Assay: cell-based or functional assay

In order of falling “BT474 pHER3 % inhibition” value:
1. B2  73%
2. B6  71%
3. B1  70%
4. B4  70%
5. B8  65%
6. B3  64%
7. B5  63%

In order of falling “BT474 pHER3 IC50” value:
1. B3  1490 pM
2. B4  707 pM
3. B8  418 pM
4. B6  365 pM
5. B2  108 pM
6. B1  79 pM

In order of rising “MCF7 pHER3 % inhibition” value:
1. B5  62%
2. B4  67%
3. B6  71%
4. B9  73%
5. B1  77%
6. B8  79%
7. B7  83%
8. B2  87%
9. B3  89%

In order of rising “MCF7 pHER3 IC50” value:
1. B1  11 pM
2. B2  34 pM
3. B9  200 pM
4. B3  318 pM
5. B4  435 pM
6. B5  590 pM
7. B7  615 pM
8. B6  674 pM
9. B8  1230 pM

In order of rising “SK-Br-3 pHER3 % inhibition” value:
1. B8  68%
2. B9  69%
3. B7  71%
4. B3  73%
5. B1  74%
6. B5  74%
7. B2  75%
8. B6  76%
9. B4  77%

In order of rising “SK-Br-3 pHER3 IC50” value:
1. B3  7 pM
2. B1  18 pM
3. B2  25 pM
4. B9  97 pM
5. B4  223 pM
6. B8  252 pM
7. B7  263 pM
8. B6  278 pM
9. B5  1870 pM

Biological target: T1, human HER3 endogenously expressed on …
Assay: cell-based or functional assay
Remark: another data set of the same source

In order of falling “BT-474 pAkt % inhibition” value:
1. B1  77%
2. B2  77%
3. B3  67%

In order of falling “BT-474 pAkt IC50” value:
1. B3  173 pM
2. B1  137 pM
3. B2  91 pM

In order of rising “SK-Br-3 pAkt % inhibition” value:
1. B1  84%
2. B3  84%
3. B2  85%

In order of rising “SK-Br-3 pAkt IC50” value:
1. B2  8 pM
2. B1  17 pM
3. B3  140 pM

In the case of B3, the “MCF7 pAkt % inhibition” value is reported as 76%.

In the case of B3, the “MCF7 pAkt IC50” value is reported as 533 pM.

Biological target: T1, human HER3 endogenously expressed on …
Assay: cell-based or functional assay
Remark: another data set of the same source

In order of rising “BT-474 proliferation % inhibition” value:
1. B1  37%
2. B2  40%

In order of falling “BT-474 proliferation IC50” value:
1. B1  136 pM
2. B2  127 pM

In order of falling “MCF7 proliferation % inhibition” value:
1. B3  45%
2. B1  44%
3. B2  39%
4. B5  34%
5. B8  31%
6. B4  29%
7. B6  26%

In order of rising “MCF7 proliferation IC50” value:
1. B3  28 pM
2. B2  52 pM
3. B1  58 pM
4. B4  317 pM
5. B5  492 pM
6. B6  1090 pM
7. B8  2310 pM

In order of rising “SK-Br-3 proliferation % inhibition” value:
1. B3  29%
2. B5  34%
3. B1  36%
4. B2  36%
5. B4  36%
6. B6  36%
7. B8  42%
8. B9  48%
9. B7  53%

In order of falling “SK-Br-3 proliferation IC50” value:
1. B5  2080 pM
2. B8  432 pM
3. B6  278 pM
4. B7  81 pM
5. B9  47 pM
6. B4  44 pM
7. B1  34 pM
8. B3  0.01 pM

Biological target: T2, Hu HER3: CD33-[Human HER3, residues 20-640]-TAG (human, UniProt P21860 20-640)
T2 construct: also called hu HER3-Tag; HER3-Tag; not shown: C-terminal TAG (e.g. FLAG TAG)
Assay: solution equilibrium titration (SET), IgG, ECL read-out

In order of rising Kd:
1. B7  45 pM
2. B8  150 pM
3. B9  210 pM
4. B6  870 pM
5. B4  970 pM
6. B2  1500 pM
7. B3  1800 pM
8. B5  1800 pM
9. B1  2000 pM

Biological target: T3, Cyno HER3: CD33-[Cyno HER3, residues 20-643]-TAG (cynomolgus monkey, UniProt G7PIG5 20-643)
T3 construct: also called cy HER3-Tag; not shown: C-terminal TAG (e.g. FLAG TAG)
Assay: as above

In order of falling Kd:
1. B1  6100 pM
2. B5  3600 pM
3. B3  2900 pM
4. B2  2600 pM
5. B4  1400 pM
6. B6  720 pM
7. B8  600 pM
8. B9  140 pM
9. B7  26 pM

Biological target: T4, Mu HER3: CD33-[Murine HER3, residues 20-643]-TAG (mouse, UniProt Q61526 20-643)
T4 construct: also called mu HER3-Tag; not shown: C-terminal TAG (e.g. FLAG TAG)
Assay: as above

In order of falling Kd:
1. B1  4100 pM
2. B5  3900 pM
3. B4  2400 pM
4. B3  2300 pM
5. B6  1500 pM
6. B2  1400 pM
7. B8  560 pM
8. B9  220 pM
9. B7  23 pM

Biological target: T5, Rat HER3: CD33-[Rat HER3, residues 20-643]-TAG (rat, UniProt Q62799 20-643)
T5 construct: also called ra HER3-Tag; not shown: C-terminal TAG (e.g. FLAG TAG)
Assay: as above

In order of falling Kd:
1. B1  11000 pM
2. B3  9600 pM
3. B2  8100 pM
4. B8  690 pM
5. B9  285 pM
6. B7  51 pM

Biological target: T1, human HER3 endogenously expressed on …
Assay: FACS titration of IgG on SK-Br-3 cells (endogenous HER3)
Experimental: The binding of antibodies to endogenous human antigen expressed on human cancer cells was accessed by FACS. In order to determine antibody EC₅₀ values SK-Br-3 cells were harvested with accutase and diluted to 1×10⁶ cells/mL in FACS buffer (PBS/3% FBS/0.2% NaN₃). 1×10⁵ cells/well were added to each well of a 96-well plate (Nunc) and centrifuged at 210 g for 5 minutes at 4° C. before removing the supernatant. Serial dilutions of test antibodies (diluted in 1:4 dilution steps with FACS buffer) were added to the pelleted cells and incubated for 1 hour on ice. The cells were washed and pelleted three times with […] FACS buffer. PE conjugated goat anti-human IgG (Jackson ImmunoResearch) diluted 1/200 with FACS buffer were added to the cells and incubated on ice for 1 hour. Additional washing steps were performed three times with 100 μL FACS buffer followed by centrifugation steps at 210 g for 5 minutes at 4° C. Finally, cells were resuspended in 200 μL FACS buffer and fluorescence values were measured with a FACSArray (BD Biosciences). The amount of cell surface bound anti-HER3 antibody was assessed by measuring the mean channel fluorescence.

In order of falling EC50:
1. B7  279 pM
2. B9  179 pM
